Patent US20180320177A1, “COMPOSITIONS AND METHODS FOR THE TREATMENT OF LIVER FIBROSIS” (UNIVERSITY OF CONNECTICUT, priority 2015, published 2018)

B1: miR-539: microRNA, accession number NR_030256.1, SEQ ID NO: 5 (nucleic acid, listed as Homo sapiens)
chain: ATACTTGAGGAGAAATTATCCTTGGTGTGTTCGCTTTATTTATGATGAATCATACAAGGACAATTTCTTTTTGAGTAT
modifications: expressed or natural sequence
B2: miR-127: microRNA, accession number NR_029696.1, SEQ ID NO: 4; targets the HMGB2 3′UTR (nucleic acid, listed as Homo sapiens)
chain: TGTGATCACTGTCTCCAGCCTGCTGAAGCTCAGAGGGCTCTGATTCAGAAAGATCATCGGATCCGTCTGAGCTTGGCTGGTCGGAAGTCTCATCATC
modifications: expressed or natural sequence
B3: miR-543: microRNA, accession number NR_030619.1, SEQ ID NO: 6 (nucleic acid, listed as Homo sapiens)
chain: TACTTAATGAGAAGTTGCCCGTGTTTTTTTCGCTTTATTTGTGACGAAACATTCGCGGTGCACTTCTTTTTCAGTATC
modifications: expressed or natural sequence

Key:
HMGB2 protein [1] = assay: Inhibition of HMGB2 protein by miRNAs in human and mouse cells; type: cell-based
Experimental: (§1) Western Blotting: Total protein lysates were prepared from livers and cells in lysis buffer containing 50 mM Tris, pH 8.0, 1% Nonidet™ P-40, 150 mM NaCl, 0.5% sodium deoxycholate, 0.1% SDS with protease inhibitors (Thermo Fisher Scientific) and subjected to immunoblotting. Nuclear and cytoplasmic subcellular fractions were prepared using NE-PER nuclear and cytoplasmic extraction reagents (Pierce) according to the manufacturer's instructions. The blot was incubated with a primary antibody, followed by a secondary antibody conjugated to horseradish peroxidase. ECL kit (Pierce) was used to detect the reactivity. The following antibodies were obtained from Cell Signaling Technology: HMGB2, HMGB1, AKT, p-AKT, mTOR, p-mTOR, ERK1/2, pERK1/2, Raptor, Rictor, p53, p21, p-Bad, Smad4, p-Smad2/3, Lamin A/C, a-SMA, MMP2, MMP9, TIMP1, RhoA, Rho-GTP, Cdc42, Rac1/2/3. Anti-HA antibody and anti-beta actin antibody were purchased from Sigma and Santa Cruz Biotechnology, respectively.
(§2) Cell culture, Cell transfection:HEK293T, Hela, Hep3B and MHCC97H cells were cultured and transfected using X-tremeGENE™ HP DNA transfection reagent (Roche) as described previously. CGR8 ES cells were cultured on 0.1% gelatin coated tissue-culture dish in knockout DMEM medium containing 15% ES qualified-Fetal Bovine Serum, 2 mM L-glutamin, 0.1 mM NEAA, 0.1 mM β-mercaptoethanol, 50 μg/ml penicillin-streptomycin and 10 ng/ml Leukemia inhibitory factor (LIF). TIC cells were cultured in DMEM-F12 medium containing Embryomax nucleotides, 2 mM L-glutamin, 0.1 mM NEAA, 20 ng/ml mouse EGF, 50 μg/ml penicillin-streptomycin and […].
We identified conserved binding sites for miR-539, miR-543, miR-181c, and miR-23α in human and mouse HMGB2 3′UTRs (not sho4wn). We tested the inhibition of HMGB2 protein by these miRNAs in both human and mouse cells. […]

HMGB2 protein [2] = assay: Western blot of HMGB2 protein in HCC cells transfected with miR-127; type: cell-based, human; conditions: HCC cells transfected with miR-127 (FIGS. 12C-F)
Experimental: as §1
Cell culture, Cell transfection:HEK293T, Hela, Hep3B and MHCC97H cells were cultured and transfected using X-tremeGENE™ HP DNA transfection reagent (Roche) as described previously. […]

CGR8 ES cells [3] = assay: qPCR of ES markers and three-germ layer genes in CGR8 ES cells and EBs; type: cell-based, mouse; conditions: miR-127 lentivirus versus GFP; CGR8 ES cells and 4d EBs
Experimental: RNA Isolation and Analysis: RNA was isolated using TRIzol® (Thermo Fisher) according to the manufacturer's instructions. For quantitative real time RT-PCR (q-PCR), RNA was reverse transcribed using iScript™ cDNA Synthesis Kit (Bio-Rad). The resultant cDNA was amplified and quantified using SsoAdvance™ Universal SYBR® Green Supermix (Bio-Rad) in CFX384 Touch™ Real-Time PCR Detection System (BioRad). qPCR was performed in triplicate for each sample and repeated at three times. Ct values were used to calculate the relative expression level normalized to the levels of Hprt1 or beta-actin expression.
(§3) ES cells EB formation and TICs spheroid assay: CGR8 ES cells were trypsinized into single cells and cultured in ES medium devoid of LIF in hanging drops (900 cells per EB) for 2 d and transferred to ultralow attachment plate for a further 2 d suspension culture. Then, EBs were plated onto gelatin coated tissue-culture plate for further 7 d spontaneously differentiation.
(§4) Right, western blot of HMGB2, RhoA, CDC42, Rac1/2/3 in TIC cells which were infected with miR-127 or GFP lentivirus.

TIC cells = assay: TIC cell spheroid assay; type: cell-based; conditions: TIC cells infected with miR-127 lentivirus (FIG. 15C)
Experimental: TIC cells were trypsinized into single cells and 1000 cells were suspended in serum free TIC medium with 1% methylcellulose supplemented with B27, 20 ng/ml EGF and 20 ng/ml FGF in each well of 96-well ultralow attachment plate.

MMP and Rho signaling = assay: Western blot of MMP and Rho signaling in TIC cells; type: cell-based; conditions: TIC cells, miR-127 lentivirus versus GFP (FIG. 15B)
Experimental: as §1
Cell Lines The LX-2 human stellate cell line was maintained in Dulbecco's Modified Eagle's Medium (DMEM) supplemented with 2% fetal bovine serum (FBS), 100 IU/ml penicillin, and 100 μg/ml streptomycin. Human hepatocellular carcinoma (HCC) MHCC97H cells were maintained in DMEM supplemented with 10% FBS, 100 IU/ml penicillin, and 100 μg/ml streptomycin, 1 mM HEPES, 1 mM sodium pyruvate, 2 mM L-glutamine. Tumor-initiating (TIC) cells were obtained from Dr. Hidekazu Tsukamoto at University of Southern California and were maintained in 1:1 DMEM:F12 supplement with 100 U/ml penicillin and 100 μg/ml streptomycin, 2 mM glutamine, 20 ng/ml mouse EGF, 10 nM dexamethasone, 1× embryomax nucleotides. All the cells were maintained at 37° C. humidified atmosphere with 5% CO2. TIC cells were infected with Hmgb2 shRNA lentivirus for 48 hr, and treated with 500 ng/ml puromycin for 2 weeks. The stable cells were used for migration and invasion assay, as well as western blot.

HMGB2 3′UTR = HMGB2 3′UTR luciferase reporter assay in HEK293T cells; type: cell-based, human; conditions: 0, 75 or 150 ng miR-127 (FIG. 12A-12B)
Experimental: Luciferase reporter assay: 48 h after transfection with luciferase reporter plasmid and Renilla plasmid, cells were harvested and analyzed with the Dual-Luciferase reporter assay system (Promega) as described. All assays were done in triplicates, and all values were normalized for transfection efficiency against Renilla luciferase activities.
FIG. 12A is a sequence alignment of miR-127 and the 3′-UTR of HMGB2 in human, mouse and rat. The seed match region is indicated by underline. mut, mutant FIG. 12B is a Luciferase reporter assay. Left, HEK293T cells were transfected with HMGB2 3′UTR luciferase reporter with 0, 75 or 150 ng miR-127; Middle, HEK293T cells were transfected with wild-type or mutant HMGB2 3′UTR with or without 150 ng miR-127. Right, HEK293T cells were transfected with HMGB2 3′UTR with or without miR-127 antagomir. Luciferase activity was normalized to Renilla activity. In FIG. 12C, Western blotting was performed to determine endogenous HMGB2 protein in Hela cells that were transfected with pTarget, pTarget-miR-433, or pTarget-miR-127. β-Actin served as an internal control. In FIG. 12D, Left, western blot was performed to determine HMGB2 and CREB protein level in MHCC97H cells transfected with miR-127 for 24 hrs. Right, qPCR analysis of miR-127 level in MHCC97 cells transfected with miR-127 for 0, 24, 48 hrs. […]

HMGB2 protein [4] = assay: Western blot of HMGB2 in TIC cells infected with miR-127 lentivirus; type: cell-based; conditions: miR-127 lentivirus versus GFP (FIG. 15B)
Experimental: as §1, §4

CGR8 ES cells [5] = assay: CGR8 ES cell differentiation and EB formation; type: cell-based, mouse; conditions: knockdown of HMGB2 (summary)
Experimental: as §2, §3
FIGS. 10A-C show the establishment of CGR8 cell culture and differentiation. […] Undifferentiated feeder-free CGR8 ES cells were maintained on 0.1% gelatin coated 6-cm tissue-culture dish in ES medium containing 10 ng/ml Leukemia inhibitory factor (LIF). For EB formation, CGR8 ES cells were trypsinized into single cells and cultured in ES medium devoid of LIF in hanging drops (900 cells per EB) for 2 d and in suspension culture for a further 2 d. Then, EBs were transferred onto gelatin coated tissue-culture plate for further spontaneously differentiation. ES withdraw LIF 2d, CGR8 ES cells were cultured in ES medium devoid of LIF for 2 d.
FIG. 14A is Left, Western blot of HMGB2 and SOX2 protein in HEK293T cells transfected with 0.5 μg […] expression plasmid and 0, 1 or 2 μg Flag-HMGB2 expression plasmid. Right, Western blot of HMGB2 and OCT4 protein in HEK293T cells transfected with 0.5 μg HA-OCT4 expression plasmid and 0, 1 or 2 μg Flag-HMGB2 expression plasmid. […] CGR8 cells were lysed, co-immunoprecipitated with OCT4 antibody, followed by Western blot with HMGB2 or OCT4 antibodies. FIG. 14 C is a luciferase reporter assay. HepG2 cells were infected with AAV8-GFP or AAV8-HMGB2 24 hrs before being transfected with 6*OS luciferase reporter and OCT4, SOX2 expression plasmids alone or in combination.

[6] = miRNA overexpression, Huh7, HEK293T, Hepa1, or TIC (FIG. 11)

Row | Molecule | HMGB2 protein (HMGB2 protein [1]; [6]) | HMGB2 protein (HMGB2 protein [1]; only in Huh7) | HMGB2 protein (HMGB2 protein [2]) | differentiation markers (Bmp5, Foxa2) (CGR8 ES cells [3]) | stem cell marker (Oct4, Nanog, Sox2) expression (CGR8 ES cells [3]) | spheroid formation (TIC cells) | Rhos/CDC42/Rac signaling (MMP and Rho signaling) | targeting of HMGB2 3′UTR (luciferase reporter) (HMGB2 3′UTR) | HMGB2 protein (HMGB2 protein [4]) | CGR8 differentiation (CGR8 ES cells [5])
1 | B1 | decreased | inhibited |  |  |  |  |  |  |  | 
2 | B2 |  |  | decreases HMGB2 protein | increases | decreases | downregulates | downregulates | targets the HMGB2 3′UTR | downregulates | promotes CGR8 differentiation
3 | B3 | decreased |  |  |  |  |  |  |  |  | 
